Data as given in a protein production outcome set (Wang et al. 2014).

Assay: label from the status in PepcDB records

| Sequence | protein production |
| --- | --- |
| MTMIKGYSEKVEKIYSKLRKTEEDNLKSRREEIKDKLPKIIKIDSEISRLCLKLSTNIFKKINNRDEYIKSLKNEITNLRMERSELLVSNGYPMDYLQMHYNCSKCKDTGYIGAHKCSCYKKYLVQLYYDNSDLKSLLNENNFENFNINYYSNRKSEDEPRTPRKNMEKILSLSLNYIKNFSDSNENLLFYGNSGTGKTFLSHCIAKDLLERGFLVIYKTSADLAQELKQLQFEPNPTLEDLIINCDLLIIDDLGTEQISAFSKTCFFNLINKKLLSQKKMLISSNYNLEELTRLYSERITSRLFGDFTLCKFYGDDIRINRNLKNKKI | failed |
| MTMPHAFSRQPATHRSGRFPRSRALLLASLLAAGLASLPAWAAAPATRTAQAAPEGSSRAAVQLEKSRPRGNLLATDRTDLPAVPLSEDIMYRVLASEVSLQRGLVEPAYRTYLGLAQDTRDPRFAQRATEIAFLTRSPSQALTAARLWVELAPTSMPARQVQQLLMVATGQWSEVEPMLQAQLNKVSPGQRAEAILQLQQQMSKSNDPAGAVSALQRLTTHDAQRPETHLALARAKVVAKDNTGALSELDTALKLRPGYEDAAILAAELRADSDPDAAISGLRTFLKAAPASIDGHLALARMYLVRNQNDQARAEFEALRKIAPTDPRIPLALGLLNLQQRQYDSAEQYLKEYVAQAAKSPSLSPEPGYQGLAQVAEEKRDYAGAITWLDKIAGASNGDGDGQVALAAGIKRAQLLGKLRRIDEAQQAFDELIADTEDVPDGPRRQALMDGIRQAEVGMLMDAKAYGRARARVNDLLRTSPDSVEYTYQLSMLEEHDGHYDNMETLLRKVIDLRPGQAIGYNALGYSLADRNIRLQEAQELLEKAVSLAPDDPYIADSLGWVKYRRGDLPAATDILRKAWAAAPQAEIGAHLGEVLWQSGKQDDARKVWTEAAKLDINDTTLRETLHRFSQPLPDAPTSAN | failed |
| MTMSLIAGVAAFVLTVLAMPHFITYYKIKKIGGQQMHEDVKQHLAKAGTPTMGGTVFLVVAILISLIFNFHVFTEGHPAYGATAGILFVILIYGIIGFLDDFLKIFHQINEGLKPWQKMALQIVAGLLFYFIHVLPSGTNSLAIGGLTIQLGVFYVLFVLFWIVGFSNAVNLTDGIDGLASVSVVISLIAYGIIAFVKGELAILTIIITMIGALLGFFVFNHKPAKVFMGDVGSLSLGAMLAVISIALRVEWTLLLIGVVYVLETASVMLQVSYFKYTKRKYGEGRRIFRMTPFHHHLELGGISGKGEKWSEWKVDAFLWTIGALASSITLWMVLGNVMK | failed |
| MTNDFKKEKKEDYFVNLKAISTEVLQEKVQDNAWVIVDTRLNDAYNGWKLDGVKRGGHIKGAVDFSANWLSVYSDRKDEVLEQALKTKRIDLDKNIVLYDANGKDALVVADYLSKKGYKYLYKYDIKQWADDENLPMERYKNYQMIVPLEHHHHHH | not failed |
| MTNGGGGMSSGEGFRRRSSGEGFPAREFRWWVSGDRVFPRGFFGEGVQVGVPTVVSGEGVPAKVPGGDFSGKKVPAVVFRRVSSSDGGGRGSGGGGGGGSGLGW | failed |
| MTNGKNPKEYSRQYVDEIAERADVVGYAPAIEYSFDRYTNNPVHEKIATIHDGEKLGDDAHVEVVVVDFFKKSDKGDKCYATKRTYAVIPDSDGDGTDALVYSGSLKSVSDIEEGYVTETDFTSKTVTYAKGDYAATELEHHHHHH | failed |
| MTNIQALFERIAPLYDRLNDQLSFGLHHVWKQMAVDWLELPQGATALDLCCGTGDLTRLLARRVGRQGRVVGLDFAAAPLAIARQRSDHYPQIEWLQGDALAVPFAPQTFQGITIGYGLRNVVDIPQALREMFRLLVPGGRAAILDFSHPQTSALEQFQQWYLQQWVVPTARHYGLAAEYDYLWPSIQAFPTPPTLCALIQQAGFERVKHYPLLGGLMAITVAQKLEHHHHHH | failed |
| MTNKGYFWVVASLVLASAAQVLMKSGMLALPSISMTHWPSLSTLMAGWPVVAVLVGIICYGLSMVCWFMVLRYLPLSRAYPLISLSYAVVYLAAVFLPWLNEPMSLRKNLGVLIILLGVWLVSRDAQATK | failed |
| MTNLGTAKNFWDATLYQDKHSFVWQYGEDLLQLLNPQPGEFILDLGCGTGQLTEKIAQSGAEVLGTDNAATMIEKARQNYPHLHFDVADARNFRVDKPLDAVFSNAMLHWVKEPEAAIASIHQALKSGGRFVAEFGGKGNIKYILEALYNALETLGIHNPQALNPWYFPSIGEYVNILEKQGFDVTYAALFNRPTTLAEGEFGMANWIQMFASAFLVGLTPDQQVQLIRKVEATLQDKLYHQESWTADYRRIRIVSIKAQ | not failed |
| MTNLRKILLIPALIVVSVSSFFSCGVDRWPEYAHLTELDTWMYDIMQQNYLWYQYMPGYDEVNLFQDPATFLSKAKWDKDSYSFVDSVLEAPLPTYGFDYSLVKSQDNDTAYNALITYVIPESPAEKAGLQRGDWIMKVDTSYISKKYETQLLQGTIARELSMGVWKEVEEEPEEGEEVPEEPVMVYKVVPNGVTLDLGAAQSIEDQPVHKYKILTLDNGAKVGYLMYNSFTAGTNNDPEKYNNELRKVSTIFQEANVQATILDLRYNEGGSLDCVQLLATILVPNARMGTPMAYLEYNDKNLDKDATINFDQEVLKTGVNLNQNTLVAITSGTTAGAAEMLLTSLYKEEQAPNIIVMGSASKGQTVATEQFINETYRWSVNPVVCTVYNSDHDAGEDAFVLVPSDKFKISETSINGTTDYSQFLPFGNPKERMLSIAIQTLEGTYPPKDEDKEEETRSTKSIKIEKSVSSPASRRFAGGLRIK | failed |
| MTNLVDKAAHSFATQNVVFQTLATASGKLVGVVTLNVEKALNALDLDMVRAMTVQLNLWKKDPLIACVVLDGSGEKAFCAGGDVRALYHASVAAKGQVTEVAKVFFEEEYRLDYLLHTYGKPVLVWGDGIVMGGGLGLMAGASHKVVTETSRIAMPEVTIGLYPDVGGSYFLNRMPGKMGLFLGLTAYHMNAADACYVGLADHYLNRDDKELMFDAMATLDWSDSPALNHQRLDTMINELSNQVDIPKGDSVLAESQEMIDRLMAGSLTDIVTRMSTLSTDEAWLSKACATMLAGSPISWHLAYIQTQLGTKLSLAQCFKWELTVSVNVCAKGDFCEGVRALLIDKDKQPKWQFADVQSVPNSVIEDILTSPWGEEHPLSQLS | not failed |
| MTNNQKLVGRHKRLAFMKVGTEGTYDRITGFTSLIEGKEAKEYARQYIDEATERTDVVGYATGIEYAFDRYTNNAVHEKIANITDDELLGVDAQVEIVSVDVFEEKAGGKYPARKRTYSVVPDTTGDGTDALIYSGNFKAVSEIVKGYCTTTDKWQTCTFVEGEIPAEALEHHHHHH | not failed |
| MTNPEATDKEGKNYALFIGDTVLVGEQSPASVMTPSKKKIKNVGIFIKDDSDEEDVDDKKTAKEDQGTEILGRSKRNAVLESKLRNEINTEEKRKEHQRELAQQLNERAKDRLARQGNSKEVEKVRKNTVSYKSISQMPREPEVKELKLYVDKKYETV | failed |
| MTNPETASDNSRDLVLVRRFDAPCDLVFRAWTDPKALAQWCGPHGFKAVGDRLEAWPGGRHRACLIAPDGEEHWVGGKYLEVEPPHRLVFTHAWETGAGETSPETIVTITLRESDGGTEMTFRQSGFASVSSLEGHESGWSQSFERLSSFLGTGSEGLNHA | failed |
| MTNQEQSGDGGRLAPRPVERPPVDPAAQRTFGRPAGVEGSFLGAGQYQDQGEYAPKDQPPDPVLAEAFGRPRGTSETLQRHPTDAGALEAERLGDEDVTDDPWRDPSAPVALGTPAQPPPPPVYVNAPTGKLGLREVLFGGRVSWIALLTLALVAVLIAFVGGWVGQKTAGTVQAFTTSKVTLETGDHPDPDAGRFEQVAAAVADSVVTIEAKSKTEGSQGSGVVVDGKGYIVTNNHVISEAATKPADFQITVVFNDGKEVPANLVGRDPKTDLAVLKVDNVDNLTVAKLGDSEKIRVGEEVIAAGAPLGLRSTVTHGIVSALHRPVPLSGDGSDTDTVIDGVQTDASINHGNSGGPLINMNAEVIGINTAGKSLSDSASGLGFAIPVNEVKEVVETLVKDGKVAHPTLLVNAVTVSNSVASGAQIKNVVENGPAGKAGMLENDVVVKVGDRKVADADEFVVAVRQLKIGQEAPIEVVRDGRPLTLMVTPIGDDQKAQ | failed |
| MTNQRTMVVGYDGSEESNLAVQWAAKHAILRDCSLHVVHCSLWVLLSHNRGPVPGVADSGLERAAQKVLEEGMALAKETVPDLEVRTTLLHGMPRDHLAHVSVGAEMLVLGSRGLGGFMGLLVGSVSLEMAATAECPVVVIRADDHPEGPVLLAVDDAGSPAALEDACDFAAATGADLMIVHVLHEPVGYRRLREPVEAYPEAEALLDSVLSQARHKAPGIAVTGELLVDASFSKAIVKASQGARITVLGTKGHGLIKGTIGSTAHAVLHHAHSPVLVSRRRATSEVA | failed |
| MTNVLYQHGTLGTLMAGLLEGTATINELLEHGNLGIATLTGSDGEVIFLDGKAYHANEHKEFIELKGDEKVPYASITNFKASKTFPLQQLSQDDVFAQIKNEMLSENLFSAVKIYGTFKHMHVRMMPAQQPPYTRLIDSARRQPEEKRQDIRGAIVGFFTPELFHGVGSAGFHIHFADDERAYGGHVLDFEVDDVVVEIQNFETFQQHFPVNNETFVKAKIDYKDVAEEIREAE | not failed |
| MTNWLIAYQGEPGAYSEIAALRFGEPLPCESFDDVFSAVTEQKADYAVIPIENSLGGSIHQNYDLLLRRPVVILAETFVKVEHCLLGLPGASVETATKAMSHPQALVQCHNFFATHPQIRAEAAYDTAGSAKMVAESRDKSALAIASKRAGELYGLDILKENLADEEWNITRFFCIAHENN | not failed |
| MTPHKQLILGGEQAFVGNVASGDFKNRPCPSDLGDIPGTVNPPEGRNPSQDFGQRWDWIQLNAEHMKFSSVSEEKPGLLAPPAQPLTKMFQGAWLCWASLLLLVRVTQPCPVGCDCFDRKIFCSDEQLAAIPLDIPSHVTDIVFVETSFTTVGTRAFSGSPNLTKVVFLNTRVHHLEPDAFGGLPRLEDLEVTGSPFSNLSANIFSNLSSLGKLTLDFNRLAALPEDLFHHMDTLESLQLQGNQLQTLPGRLFQSLRYLRTLNLAQNLLTQLPKGMFQSLSSLQILKLSDNMFARLPEGVLSNLGSLQELFLDSNAITELSPHLFSHLLSLEKLWLQHNAISLLPVSAFSSLRNLTFLNLKDNALRTLPAGLFTHNPGLLHLSLSYNQLETVPEGSFANLRKLASLTLSHNAITHLPENVFRNLEQLVKLSLDSNNLTVLHPTLFHNLSKLQLLDLSRNQLTMLPGGIFDTNYDLFNLALLGNPWQCDCRLSYLTSWLRLYNDRIFNTHTFCAGPAYLKGQLVPNLKQEQLVCPGNPGQLGLDDREPAGSWDLAVEGRAAHRQCIYGNPEGTVLLACEEAQCRWLNIQLSSREGSDVTAMAYNSSQEWELRSTCGSVRVTVSIEAQAAGP | failed |
| MTPMKTYDLIVIGTGPGGYHAAIRAAQLGLKVLAVEAGEVGGVCLNVGCIPTKALLHAAETLHHLKVAEGFGLKAKPELDLKKLGGWRDQVVKKLTGGVGTLLKGNGVELLRGFARLVGPKEVEVGGERYGAKSLILATGSEPLELKGFPFGEDVWDSTRALKVEEGLPKRLLVIGGGAVGLELGQVYRRLGAEVTLIEYMPEILPQGDPETAALLRRALEKEGIRVRTKTKAVGYEKKKDGLHVRLEPAEGGEGEEVVVDKVLVAVGRKPRTEGLGLEKAGVKVDERGFIRVNARMETSVPGVYAIGDAARPPLLAHKAMREGLIAAENAAGKDSAFDYQVPSVVYTSPEWAGVGLTEEEAKRAGYKVKVGKFPLAASGRALTLGGAEGMVKVVGDEETDLLLGVFIVGPQAGELIAEAALALEMGATLTDLALTVHPHPTLSESLMEAAEAFHKQAIHILNR | not failed |
| MTPNKEDYLKCIYEIGIDLHKITNKEIAARMQVSPPAVTEMIKRMKSENLILKDKECGYLLTDLGLKLVSELYRKHRLIEVFLVHHLDYTSDQIHEEAEVLEHTVSDLFVERLDKLLGFPKTCPHGGTIPAKGELLVEINNLPLADIKEAGAYRLTRVHDSFDILHYLDKHSLHIGDQLQVKQFDGFSNTFTILSNDEDLQVNMDIAKQLYVEKIN | not failed |
